# Test results from paper doi:10.1101/2023.06.20.545120, “Magnetogenetic cell activation using endogenous ferritin” (bioRxiv, 2024).
# Tests used:
# mouse liver ferritin = target: T1, mouse liver ferritin (Mus musculus, UniProt P09528;P29391); assay: ELISA; first-round screen: crude periplasmic extracts of the clones on coated human spleen ferritin or mouse liver ferritin; absorbance ratio greater than 2.5 selected; details: one partner purified
# T1 construct: ferritin heavy chain, mouse, as part of ferritin from liver; ferritin light chain, mouse, as part of ferritin from liver; Tissue ferritin is a shell of heavy and light chains; also called mouse ferritin; mouse ferritin purified from mouse liver; source: bought: Gentaur (purified from mouse liver)
# T1 sequence (P09528 whole entry, chain 1 of 2): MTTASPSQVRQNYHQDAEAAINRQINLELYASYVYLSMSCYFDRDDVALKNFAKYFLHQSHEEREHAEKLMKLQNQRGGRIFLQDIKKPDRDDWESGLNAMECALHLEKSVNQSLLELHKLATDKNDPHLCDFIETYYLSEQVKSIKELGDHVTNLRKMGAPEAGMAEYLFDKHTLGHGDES
# T1 sequence (P29391 whole entry, chain 2 of 2): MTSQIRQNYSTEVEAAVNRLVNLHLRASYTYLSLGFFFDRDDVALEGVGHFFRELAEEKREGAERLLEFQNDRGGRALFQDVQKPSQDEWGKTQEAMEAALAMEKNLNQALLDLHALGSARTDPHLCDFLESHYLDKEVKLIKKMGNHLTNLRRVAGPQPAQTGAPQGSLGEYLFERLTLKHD
# human spleen ferritin [1] = target: T2, human spleen ferritin (Homo sapiens, UniProt P02794;P02792); assay: ITC; 10 uM human spleen ferritin in the cell, 75 uM NbFt2 in the syringe, 25 °C; MicroCal Auto-iTC200; details: both partners purified
# T2 construct: ferritin heavy chain, human, as part of ferritin from spleen; ferritin light chain, human, as part of ferritin from spleen; Tissue ferritin is a shell of heavy and light chains; also called human ferritin; source: bought: Lee Biosolutions (human spleen ferritin)
# T2 sequence (P02794 whole entry, chain 1 of 2): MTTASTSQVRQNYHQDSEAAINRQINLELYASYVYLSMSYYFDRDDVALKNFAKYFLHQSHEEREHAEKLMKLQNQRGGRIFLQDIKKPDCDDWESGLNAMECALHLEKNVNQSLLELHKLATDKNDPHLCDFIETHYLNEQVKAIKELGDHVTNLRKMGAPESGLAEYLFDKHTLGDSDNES
# T2 sequence (P02792 whole entry, chain 2 of 2): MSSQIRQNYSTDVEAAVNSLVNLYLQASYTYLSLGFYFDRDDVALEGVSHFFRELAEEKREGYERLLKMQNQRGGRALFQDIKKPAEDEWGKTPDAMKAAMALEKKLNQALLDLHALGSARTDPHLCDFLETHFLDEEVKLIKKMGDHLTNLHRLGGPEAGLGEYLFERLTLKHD
# [2] = target: T3, GFP-tagged mouse ferritin (Mus musculus (ferritin moiety), UniProt P09528, chimera); assay: affinity purification with mass spectrometry; the anti-HA immunoprecipitates of nanobody-HA-mCherry from HEK-293T with GFP-mFerritin; LC-MS/MS, abundance from peptides unique to mouse or human ferritin heavy chain; enrichment against cells with GFP-mFerritin alone; details: partners not purified
# T3 construct: green fluorescent protein, the N-terminal GFP moiety of GFP-mFerritin; the rest of the chimeric ferritin and its linkers; ferritin heavy chain, mouse; found by mass spectrometry as the mouse ferritin of the construct; Runs at about 71 kDa; also called GFP-mFerritin; GFP-ferritin
# [3] = target: T4, endogenous human ferritin of HEK-293T cells (Homo sapiens (HEK-293T, endogenous), UniProt P02794;P02792); assay: as above; details: partners not purified
# T4 construct: ferritin heavy chain, human; the chain whose unique peptides were quantified; ferritin light chain, human; Only the heavy chain was measured; also called human ferritin heavy chain; FTH1_human
# T4 sequence (P02794 whole entry, chain 1 of 2): as the sequence (P02794 whole entry, chain 1 of 2) above
# T4 sequence (P02792 whole entry, chain 2 of 2): as the sequence (P02792 whole entry, chain 2 of 2) above
# human spleen ferritin [4] = target: T2, human spleen ferritin; assay: ELISA; first-round screen: crude periplasmic extracts of the clones on coated human spleen ferritin or mouse liver ferritin; absorbance ratio greater than 2.5 selected; details: one partner purified
# [5] = target: T3, GFP-tagged mouse ferritin; assay: co-IP; HEK-293T co-transfected with nanobody-HA-mCherry and GFP-mFerritin; lysis buffer 50 mM Tris pH 7.5, 300 mM NaCl, 1% NP-40, 0.1% SDS; anti-HA agarose overnight at 4 °C; eluate on SDS-PAGE, Coomassie; details: partners not purified
binder,measurement,setting,value
"anti-ferritin nanobody clone 8 (VHH, One of the 17 nanobodies of CDR3 groups 6 and 26; also called Nb-Ft clone 8; Nb-Ft-8; source: crude periplasmic extract of the phage display clone (pMECS)) VHH: QVQLQESGGGLVQPGGSLRLSCAASGFSFGDTWMYWVRQAPGKDIEWVAQISPSSVLINYPDSVSGRFTVGRDNAKNTLWLQMDSLKSEDTAVYYCATKMDGASRGQGTQVTVSS",binding result,mouse liver ferritin,binds
"anti-ferritin nanobody clone 2 (VHH, The text calls the preparation partially purified; also called Nb-Ft clone 2; Nb-Ft-2; source: crude periplasmic extract of the phage display clone (pMECS); E. coli WK6, purified (periplasmic extract, cobalt IMAC)) VHH: QVQLQESGGGLVQPGGSLRLSCAASGLAFSNYGMGWFRQAPGKEREFVSAVSWISDTTNYADSVKGRFTISRDNARNTVYLQMNSLKVEDTAVYYCAAGLGAPRVVAGSYQHWGQGTQVTVSS",Kd,human spleen ferritin [1],540 ± 200 nM
"anti-ferritin nanobody clone 2 fused to HA-tagged mCherry (VHH, the VHH as in m4; In the functional rows this id stands for the same VHH fused to the N-terminus of TRPV1 (Nb-Ft-2-TRPV1^Ca2+); also called Nb-Ft-2; Nb-Ft-HA-mCherry (clone 2)) VHH: QVQLQESGGGLVQPGGSLRLSCAASGLAFSNYGMGWFRQAPGKEREFVSAVSWISDTTNYADSVKGRFTISRDNARNTVYLQMNSLKVEDTAVYYCAAGLGAPRVVAGSYQHWGQGTQVTVSS",fold enrichment in the immunoprecipitate over cells with GFP-mFerritin alone,[2],14.5 fold
same,fold enrichment in the immunoprecipitate over cells with GFP-mFerritin alone,[3],58.1 fold
"anti-ferritin nanobody clone 1 (VHH, One of the 17 nanobodies of CDR3 groups 6 and 26; also called Nb-Ft clone 1; Nb-Ft-1; source: crude periplasmic extract of the phage display clone (pMECS)) VHH: QVQLQESGGGLVQAGGSLRLSCTASGLAFSSYAMGWFRQAPGKEREFVATIGWTGGTTNYADSVKGRFTISRDNARNTVYLQMNSLKVEDTAVYYCAAGLGAPTVVAGSYQHWGQGTQVTVSS",binding result,human spleen ferritin [4],binds
"anti-ferritin nanobody clone 7 (VHH, One of the 17 nanobodies of CDR3 groups 6 and 26; also called Nb-Ft clone 7; Nb-Ft-7; source: crude periplasmic extract of the phage display clone (pMECS)) VHH: QVQLQESGGGLVQAGGSLRLSCAASGLAFSSYAMGWFRQAPGKEREFVAAIMWSGGTTNYADSVKGRFTISRDNVRNTVYLQMNSLKVEDAAVYYCAAGLGAPTVVADSFQHWGQGTQVTVSS",binding result,human spleen ferritin [4],binds
"anti-ferritin nanobody clone 9 (VHH, The text calls the preparation partially purified; also called Nb-Ft clone 9; Nb-Ft-9; source: crude periplasmic extract of the phage display clone (pMECS); E. coli WK6, purified (periplasmic extract, cobalt IMAC)) VHH: QVQLQESGGGLVQAGGSLRLSCAASGLAFSSYGMGWFRQAPGKEREFVAAIRWSGGTTNYADSVKGRFTISRDNVRNTAYLQMNSLKVEDTAVYYCAAGLGAPTVVADSYQHWGQGTQVTVSS",binding result,mouse liver ferritin,binds
"anti-ferritin nanobody clone 14 (VHH, The text calls the preparation partially purified; also called Nb-Ft clone 14; Nb-Ft-14; source: crude periplasmic extract of the phage display clone (pMECS); E. coli WK6, purified (periplasmic extract, cobalt IMAC)) VHH: QVQLQESGGGLVQPGGSLRLSCAASGLAFSSYGMGWFRQAPGKEREFVVAIPWSGGTTNYADSVKGRFTISRDNARNTVYLQMNSLKVEDTAVYYCAAGLGAPTVVADSYQHWGQGTQVTVSS",binding result,mouse liver ferritin,binds
"anti-ferritin nanobody clone 9 fused to HA-tagged mCherry (VHH, the VHH as in m11; In the functional row this id stands for the same VHH fused to the N-terminus of TRPV1; also called Nb-Ft-9; Nb-Ft-HA-mCherry (clone 9)) VHH: QVQLQESGGGLVQAGGSLRLSCAASGLAFSSYGMGWFRQAPGKEREFVAAIRWSGGTTNYADSVKGRFTISRDNVRNTAYLQMNSLKVEDTAVYYCAAGLGAPTVVADSYQHWGQGTQVTVSS",binding result,[5],binds
same,fold enrichment in the immunoprecipitate over cells with GFP-mFerritin alone,[3],4.6 fold
"anti-ferritin nanobody clone 10 fused to HA-tagged mCherry (VHH, the VHH as in m12; also called Nb-Ft-10; Nb-Ft-HA-mCherry (clone 10)) VHH: QVQLQESGGGLVQAGGSLRLSCAASGLAFSSYGMGWFRQAPGKEREFVVAIPWSGGTTNYADSVKGRFTISRDNARNTVYLQMNSLKVEDTAVYYCAAGLGAPTVVADSYQHWGQGTQVTVSS",binding result,[5],binds
same,fold enrichment in the immunoprecipitate over cells with GFP-mFerritin alone,[3],7 fold
"anti-ferritin nanobody clone 3 (VHH, One of the 17 nanobodies of CDR3 groups 6 and 26; also called Nb-Ft clone 3; Nb-Ft-3; source: crude periplasmic extract of the phage display clone (pMECS)) VHH: QGQLQESGGGAVQAGGSLRLSCAASGLAFSSYGMGWFRQAPGKEREFVASISWTGGTTNYADSVKGRLTISRDNARNTVYLQMNSLKVEDTAVYYCAAGLGAPRVVAGSYQHWGQGTQVTVSS",binding result,human spleen ferritin [4],binds
"anti-ferritin nanobody clone 12 (VHH, One of the 17 nanobodies of CDR3 groups 6 and 26; also called Nb-Ft clone 12; Nb-Ft-12; source: crude periplasmic extract of the phage display clone (pMECS)) VHH: QVQLQESGGGLVQAGGSLRLSCAASGLAFSSYGMGWFRQAPGEEREFVAAISWSGGTTNYADFVKGRFTISRDNARNTVYLQMNSLKVEDTAVYYCAAGLGAPTVVAGSYQHWGQGTQVTVSS",binding result,mouse liver ferritin,binds
"anti-ferritin nanobody clone 10 (VHH, The text calls the preparation partially purified; also called Nb-Ft clone 10; Nb-Ft-10; source: crude periplasmic extract of the phage display clone (pMECS); E. coli WK6, purified (periplasmic extract, cobalt IMAC)) VHH: QVQLQESGGGLVQAGGSLRLSCAASGLAFSSYGMGWFRQAPGKEREFVVAIPWSGGTTNYADSVKGRFTISRDNARNTVYLQMNSLKVEDTAVYYCAAGLGAPTVVADSYQHWGQGTQVTVSS",binding result,mouse liver ferritin,binds
"anti-ferritin nanobody clone 6 (VHH, One of the 17 nanobodies of CDR3 groups 6 and 26; also called Nb-Ft clone 6; Nb-Ft-6; source: crude periplasmic extract of the phage display clone (pMECS)) VHH: QVQLQESGGGLVQAGGSLRLSCAASGLAFSSYGMGWFRQAPGKEREFVAAIGWTGGTTNYADSVKGRFIISRDNARNTVYLQMNSLKVEDTAVYYCAAGLGAPMVVVGSYQHWGQGTQVTVSS",binding result,human spleen ferritin [4],binds
"anti-ferritin nanobody clone 14 fused to HA-tagged mCherry (VHH, the VHH as in m16; In the functional row this id stands for the same VHH fused to the N-terminus of TRPV1; also called Nb-Ft-14; Nb-Ft-HA-mCherry (clone 14)) VHH: QVQLQESGGGLVQPGGSLRLSCAASGLAFSSYGMGWFRQAPGKEREFVVAIPWSGGTTNYADSVKGRFTISRDNARNTVYLQMNSLKVEDTAVYYCAAGLGAPTVVADSYQHWGQGTQVTVSS",binding result,[5],binds
same,fold enrichment in the immunoprecipitate over cells with GFP-mFerritin alone,[3],5.1 fold
"anti-ferritin nanobody clone 5 (VHH, One of the 17 nanobodies of CDR3 groups 6 and 26; also called Nb-Ft clone 5; Nb-Ft-5; source: crude periplasmic extract of the phage display clone (pMECS)) VHH: QVQLQESGGGLVQAGGSLRLSCAASGLAFSSYGMGWFRQAPGKEREFVASISWSGGTTNYADSVKGRLTISRDNARNTVYLQMNSLKVEDTAVYYCAAGLGAPRVVAGSYQHWGQGTQVTVSS",binding result,human spleen ferritin [4],binds
"anti-ferritin nanobody clone 17 (VHH, The text calls the preparation partially purified; also called Nb-Ft clone 17; Nb-Ft-17; source: crude periplasmic extract of the phage display clone (pMECS); E. coli WK6, purified (periplasmic extract, cobalt IMAC)) VHH: QVQLQESGGGAVQAGGSLRLSCAASGLAFSSYGMGWFRQAPGKEREFVAAISWGDGTTNYADSVKGRLTISRDNARNTVYLQMNSLKVGDTAVYYCAAGLGAPRAVAGSFQHWGQGTQVTVSS",binding result,mouse liver ferritin,binds
"anti-ferritin nanobody clone 17 fused to HA-tagged mCherry (VHH, the VHH as in m19; also called Nb-Ft-17; Nb-Ft-HA-mCherry (clone 17)) VHH: QVQLQESGGGAVQAGGSLRLSCAASGLAFSSYGMGWFRQAPGKEREFVAAISWGDGTTNYADSVKGRLTISRDNARNTVYLQMNSLKVGDTAVYYCAAGLGAPRAVAGSFQHWGQGTQVTVSS",fold enrichment in the immunoprecipitate over cells with GFP-mFerritin alone,[2],6 fold
same,fold enrichment in the immunoprecipitate over cells with GFP-mFerritin alone,[3],20.9 fold
"anti-ferritin nanobody clone 11 (VHH, One of the 17 nanobodies of CDR3 groups 6 and 26; also called Nb-Ft clone 11; Nb-Ft-11; source: crude periplasmic extract of the phage display clone (pMECS)) VHH: QVQLQESGGGLVQPGGSLRLSCVATGLSFAKSWMYWVRQAPGKGLEWVAQISPSSVLIQYPDSVSGRFTVSRDNAKNTLFLQMDSLKSEDTAVYYCSTEMDGTSRGQGTQVTVSS",binding result,mouse liver ferritin,binds
"anti-ferritin nanobody clone 15 (VHH, One of the 17 nanobodies of CDR3 groups 6 and 26; also called Nb-Ft clone 15; Nb-Ft-15; source: crude periplasmic extract of the phage display clone (pMECS)) VHH: QVQLQESGGGLVQPGGSLRLSCAASGLSFAKSWMYWVRQAPGKGLEWVAQISPSSVLIQYPDSVSGRFTVSRDNAKNTLFLQMDSLKPEDAAQYYCATDMSGTYRGQGTQVTVSS",binding result,mouse liver ferritin,binds
"anti-ferritin nanobody clone 16 (VHH, One of the 17 nanobodies of CDR3 groups 6 and 26; also called Nb-Ft clone 16; Nb-Ft-16; source: crude periplasmic extract of the phage display clone (pMECS)) VHH: QVQLQESGGGLVQPGGSLRLSCAASGLSFANSWMYWVRQAPGKGLEWVAQISPSSILIQYPDSVSGRFTVSRDNAKNTLFLQMDSLKPEDTAVYYCSTEMDGTSRGQGTQVTVSS",binding result,mouse liver ferritin,binds
"anti-ferritin nanobody clone 4 (VHH, One of the 17 nanobodies of CDR3 groups 6 and 26; also called Nb-Ft clone 4; Nb-Ft-4; source: crude periplasmic extract of the phage display clone (pMECS)) VHH: QVQLQESGGGLVQPGGSLRLSCAASGLSFANSWMYWVRQAPGKGLEWVAQISPSSLLINYPDSVSGRFTVSRDNAKNTLFLQMDSLKPEDTAVYYCSTEMDGTSRGQGTQVTVSS",binding result,human spleen ferritin [4],binds
"anti-ferritin nanobody clone 13 (VHH, One of the 17 nanobodies of CDR3 groups 6 and 26; also called Nb-Ft clone 13; Nb-Ft-13; source: crude periplasmic extract of the phage display clone (pMECS)) VHH: QVQLQESGGGLVQPGGSLRLSCVASGLSFANSWMYWVRQAPGKGLEWVAQISPSSLLINYPNSVSGRFTVSRDNAKNTLFLQMDSLKSEDTAVYYCSTGMDGTSRGQGTQVTVSS",binding result,mouse liver ferritin,binds
